Data from the nanobody polyreactivity screen of Harvey et al. (2022).

Assay: yeast display, Sf9 membrane polyspecificity reagent, FACS + sequencing; frameworks hold sequencing errors
How it was run: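 Galactose-induced (36–48 hours) yeast carrying a synthetic nanobody display library were exposed to 10% biotinylated, detergent-solubilized Sf9 membrane reagent at 4 °C for 1 hour. FACS followed streptavidin microbead enrichment, using low and high (top ~1%) gates for expression (anti-HA) and reagent binding (streptavidin). Colony PCR, MiSeq 2 × 250 sequencing and CDR-length filtering followed. Labels for polyreactivity reflect the gate of origin.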

Sequence | polyreactivity (PSR sort gate)
QVQLVESGGGLVQAGGSLRLSCAASGSIFRYYAMVWYRQAPGKERELVAAISSGGNTKYADSVKGRFTISRDNAKNTVYLQRNSLKPADTAVYYCNADGKAGGDYDYWGQGTQVTVSS | low polyreactivity
QVQLVESGGGLVQAGGSLRLSCAASGSIFRYYTMGWYRQAPGKERELVAAISSRGGSTYYADSVKGRFTISRDNAKNTVYLQMNSLKPEDTAVYYCNVLVKRAYQYTYGVDYWGQGTQVTVSS | high polyreactivity
QVQLVESGGGLVQAGGSLRLSCAASGSIFRYYVMGWYRQAPGKERELVASISYSVGRTYYADSVKGRFTISRDNAKNTVYLQMNSLKPEDTAVYYCAADRYWPYYSAYYTSYRMDYWGQGTQVTVSS | high polyreactivity
QVQLVESGGGLVQAGGSLRLSCAASGSIFSAYAMGWYRQAPGKERELVAAISYGGGSTYYADSVKGRFTISRDNAKNTVYLQMNSLKAEDTAVYYCAAASSGEYGYWGQGTQVTVSS | low polyreactivity
QVQLVESGGGLVQAGGSLRLSCAASGSIFSAYSMGWYRQAPGKERELVAAISKSGSSTYYADSVKGRFTISRDNANNTVYFQMNSLKPEDTAVYYCAAKRAGPYGITKGMDYWGQGTQVSVSS | high polyreactivity
QVQLVESGGGLVQAGGSLRLSCAASGSIFSDNAMGWYRQAPGKERELVAAITYSGGRTSYADSVKGRFTISRDNAKNTVYLQMNSLKPEDTAVYYCAVGSHSRSSNSYYYWGQGTQVTVSS | low polyreactivity
QVQLVESGGGLVQAGGSLRLSCAASGSIFSDYAMGWYRQAPGEERELVAAINSGVSTSYADSVKGRFTISRDNAKNTVYLQMNSLKPEDTAVYYCAKDGSSPSPWYGGFGYWGQGTQVTVSS | low polyreactivity
QVQLVESGGGLVQAGGSLRLSCAASGSIFSDYAMGWYRQAPGKERELVAASTQSGGSTYADSLKGRFSISRDNAKNTVYLQMNSLKPEDTAVYYCADRHDKRRQYYVGQSAFDYWGQGTQVTVSS | low polyreactivity
QVQLVESGGGLVQAGGSLRLSCAASGSIFSDYTMGWYRQAPGKERELVAAISGIGGSTYYADSVKGRFTISRDNAKNTVYLQMNSLKPEDTAVYYCAADDYYYPYVSHDYWGQGTQVTVSS | low polyreactivity
QVQLVESGGGLVQAGGSLRLSCAASGSIFSDYVMGWSRQAPGKERELVATISRGGGSTFYADSVKGRFTISRDTAKNTVYLQMNSLKPEDTAVYYCAAPPGPSGAKYDYWGQGTQVTVSS | low polyreactivity
QVQLVESGGGLVQAGGSLRLSCAASGSIFSENTMGWYRQAPGKKRELVADITSGGSTNYADSVKGRFTISRDNAKNTVYLQMNSLKPEDTAVYYCAADYNGEYDYWGQGTQVTVSS | low polyreactivity
QVQLVESGGGLVQAGGSLRLSCAASGSIFSFNAMGWYRQAPGKEREFVAAIFGVTRTYYADSVKGRFTISRDNAKNTVYLQMNSLKPEDTAVYYCAARPPYRRYSEPRFGYWGQGTQVTVSS | high polyreactivity
QVQLVESGGGLVQAGGSLRLSCAASGSIFSFNAMGWYRQAPGKERELVAVITQRGGSTYYADSVKGRFTISRDNAKNTVYLQMNSLKPEDTAVYYCAARTPRGYYYWGQGTQVTVSS | high polyreactivity
QVQLVESGGGLVQAGGSLRLSCAASGSIFSFYSMGWYRQAPGKERELVSGITWSGGSTYYADSVKGRFTISRDNAKNTVYLQMNSLKPEDTAVYYCAKTKWYYWYTSFPSVQSYDYWGQGTHVTVSS | high polyreactivity
QVQLVESGGGLVQAGGSLRLSCAASGSIFSFYTMGWYRQAPGKERELVASSTTYADSVKGRFTISRDNAKNTVYLQMNSLKPEDTAVYYCAAEYYSSITGWYYYWGQGTQVTVSS | low polyreactivity
QVQLVESGGGLVQAGGSLRLSCAASGSIFSGNAMGGYRQAPGKERELVAAISRTGTRTFYADSEKGRFTISRDNAKNTVYLQMNSLKPEDTAVYYCAADNPDGDGYDYWGQGTQVTVSS | high polyreactivity

Sequence | polyreactivity (PSR sort gate)
QVQLVESGGGLVQAGGSLRLSCAASGSIFSGNAMGWYRPAPGKGRELVAGSSRRGGRTYYADSVKGRFTISRDNAKNTVYIPMNSLKPEDPAVYYCNKDVFGDTREYDYWGQGTQVTVSS | high polyreactivity
QVQLVESGGGLVQAGGSLRLSCAASGSIFSGNAMGWYRQAPGKERELVASINRSGGSTYYADSVKGRFTISRDNAKNTVYLLMNSLKPEDTAVYYCAARRVWLAGYDSWGQGTQVTVSS | low polyreactivity
QVQLVESGGGLVQAGGSLRLSCAASGSIFSGYAMGWYRQAPGKERELVAAINWTGDSTYYADSVKGRFTISRDNAKNTVYLQMNSLKPEDTAVYYCAAIRRQKGLWDYYYWGQGSQVTVSS | low polyreactivity
QVQLVESGGGLVQAGGSLRLSCAASGSIFSINAMGWYRQAPGKERELVAAISWDGGSTYYADSVKGRFTISRDNAKYTVYLQKNSLKPEDTAVYYCNAAGYVPRNIFAGSRSLRYDYWGQGTQVTVSS | high polyreactivity
QVQLVESGGGLVQAGGSLRLSCAASGSIFSINAMGWYRQAPGKERELVAVISWIGGNTYYADSVKGRFTISRDNAKNTVYLQMNSLKPEDTAVYYCAVATGPVSYRRYYWGQGTQVTVSS | high polyreactivity
QVQLVESGGGLVQAGGSLRLSCAASGSIFSINARGWYRQAPGKERELVAAITYSTGSTYYADSVKGRFTISRDNAKNTVYLQMNSLKPEDTAVYYCAAVYKRTYLHSQTYGYYYWGQGTQVTVSS | high polyreactivity
QVQLVESGGGLVQAGGSLRLSCAASGSIFSINTMGWYRQAPGKERELVAAITRSGSGTYYADSVKGRFTISRDNAKNTVYLQMNSLKPEDTAVYYCAKPAGARLGYWGQGTQVTVSS | low polyreactivity
QVQLVESGGGLVQAGGSLRLSCAASGSIFSINTMVWYRLAPGKERELVAAISRTGGSTYYADSVKGRFTNSRDNAKNTVYLQMNSLKPEDTAVYYCGKDRRRSTYEYWGQCTQVTVSS | high polyreactivity
QVQLVESGGGLVQAGGSLRLSCAASGSIFSIYAMGWYRQAPGKERELVASITRSSGRTYYADSVKGRFTISRDNAKNTVYLQMNSLKPEDTAVYYCAKDYIPLALDADDYWGQGTQVTVSS | low polyreactivity
QVQLVESGGGLVQAGGSLRLSCAASGSIFSKNAIGWYRQAPGKERELVDAISASGASTYYADSVKGRFTISRDNEKNTVYLQMNSLKPEDTAVYYCNADVSGVSSYGRSYEFYYWGQGTQVTVSS | low polyreactivity
QVQLVESGGGLVQAGGSLRLSCAASGSIFSKNTMGWYRQAPGKEREFVARISVRGGSTYYADSVKGRFTISRDNAKNTVYLQMNSLKPEDTAVYYCNAAHTVTQNSRNSDYWGQGTQVTVSS | high polyreactivity
QVQLVESGGGLVQAGGSLRLSCAASGSIFSKYVMGWYRQAPGKEMELVASITSGGRTNYADSVKGRFTISRDNAKNTVYLQMNSLKPEDTAVYYCAARALKTWYRSGVDYWGQGTQVTVSS | low polyreactivity
QVQLVESGGGLVQAGGSLRLSCAASGSIFSLNAMGWYRQAPGKERELVAAINSGGTSTYYADSVKGRFTMSRDNAKNTVYLHMKSLKPEDTAVYYCAKRQRDYSSVFDVDYWGQGTQVTVSS | low polyreactivity
QVQLVESGGGLVQAGGSLRLSCAASGSIFSLYAMGCYIQAHGKERELVAAISRGGSTNYADSVKGRFTISRDNAKNTVYLQMNSLKPEDTAVDYCNAGFGVRRKHITFYTWYDYWGQGTQVTVSS | low polyreactivity
QVQLVESGGGLVQAGGSLRLSCAASGSIFSNYAMGGYRQAPGKERELVAAISRNGGSTSYADSVKGRFTISRDNAKNTVYLQMNSLKPEDTAVYYCAKRYKTAQYYYWGQGTQVTVSS | high polyreactivity
